{"source": "IntAct's records for PubMed 15385968", "target": "xrcc4_human XRCC4 (UniProt Q13426)", "sequence (Q13426 whole entry)": "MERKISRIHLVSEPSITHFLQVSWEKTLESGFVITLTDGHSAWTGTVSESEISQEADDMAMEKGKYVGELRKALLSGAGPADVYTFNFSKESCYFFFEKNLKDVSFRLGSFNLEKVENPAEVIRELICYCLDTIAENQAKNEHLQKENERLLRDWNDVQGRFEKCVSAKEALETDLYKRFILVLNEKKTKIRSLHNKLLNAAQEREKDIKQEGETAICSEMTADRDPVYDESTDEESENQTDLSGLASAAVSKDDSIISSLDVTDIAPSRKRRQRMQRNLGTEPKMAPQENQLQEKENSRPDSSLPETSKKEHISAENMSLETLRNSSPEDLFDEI", "data": [{"substance": "Bifunctional polynucleotide phosphatase/kinase (Homo sapiens), Q96T60 R35A", "values": [{"measurement": "effect of a mutation on the interaction", "result": "disrupting interaction"}]}]}
